Patent publication US20160009772A1, “CELL PENETRATING PEPTIDES WHICH BIND IRF5” (priority 2012, published 2016)

Target: Wild type IRF5 (222-467) (human) (UniProt Q13568)
Test: TR-FRET

Wild type IRF5 (222-467), sequence (Q13568 232-477): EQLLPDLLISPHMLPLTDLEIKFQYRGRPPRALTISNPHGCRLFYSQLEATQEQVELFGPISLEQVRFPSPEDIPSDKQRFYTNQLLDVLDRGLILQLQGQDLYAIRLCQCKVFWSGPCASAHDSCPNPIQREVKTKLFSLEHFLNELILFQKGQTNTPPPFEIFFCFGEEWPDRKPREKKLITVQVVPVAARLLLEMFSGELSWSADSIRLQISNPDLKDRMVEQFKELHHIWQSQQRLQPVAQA

Kd [µM]	Substance
1.58	IRF5(222-467, S430D), S430D phosphomimetic construct of IRF5 (222-467) (from UniProt Q13568 222-467)
4.21	Wild type IRF5 (222-467) (from UniProt Q13568 232-477)
